# Reference: patent JP2011160681A
# B1: InfA-15 monoclonal antibody (antibody, V domains shown)
# VH: QVQLKESGPGLVAPSQSLSITCTVSGFSLTKSGLHWVRQPPGKGLEWLGVIWAGGSTDYNSALTSRLTITKDNSKSQIFFRLNSLQTADTAMYYCVRSTFLYAMDFWGQGTSVTVS
# VL: DAVMTQTPLSLPVSLGDQASISCRSSPSLEHSNGNTYLNWYLQKPGQSPQLLIYRVSNRFSGVPDRFSGSGSGTDFTLKISRVEAEDLGVYFCLQVTHVPPTFGGGTKLEIKRA
# What was measured:
# [1] = molecular target: InfA peptide (GMVDGWYG) (Influenza A virus); assay: ITC (summary in the description)
# [2] = molecular target: InfA peptide (GMVDGWYG) (Influenza A virus); assay: ITC, 25 °C, peptide titrated into antibody
binder,measurement,setting,value
B1,"結合定数 (order of magnitude, unit M as printed)",[1],1000 nM
same,Ka,[2],8.6e+06 M⁻¹
